B1: LINE-1 plasmid Her2-Cd3z-T2A-GFPintron: LINE-1 plasmid with cargo encoding chimeric HER-2 binding receptor and split GFP (SEQ ID NO: 41) (nucleic acid)
DNA: CGGCCGCGGGGGGAGGAGCCAAGATGGCCGAATAGGAACAGCTCCGGTCTACAGCTCCCAGCGTGAGCGACGCAGAAGACGGTGATTTCTGCATTTCCATCTGAGGTACCGGGTTCATCTCACTAGGGAGTGCCAGACAGTGGGCGCAGGCCAGTGTGTGTGCGCACCGTGCGCGAGCCGAAGCAGGGCGAGGCATTGCCTCACCTGGGAAGCGCAAGGGGTCAGGGAGTTCCCTTTCCGAGTCAAAGAAAGGGGTGACGGACGCACCTGGAAAATCGGGTCACTCCCACCCGAATATTGCGCTTTTCAGACCGGCTTAAGAAACGGCGCACCACGAGACTATATCCCACACCTGGCTCGGAGGGTCCTACGCCCACGGAATCTCGCTGATTGCTAGCACAGCAGTCTGAGATCAAACTGCAAGGCGGCAACGAGGCTGGGGGAGGGGCGCCCGCCATTGCCCAGGCTTGCTTAGGTAAACAAAGCAGCAGGGAAGCTCGAACTGGGTGGAGCCCACCACAGCTCAAGGAGGCCTGCCTGCCTCTGTAGGCTCCACCTCTGGGGGCAGGGCACAGACAAACAAAAAGACAGCAGTAACCTCTGCAGACTTAAGTGTCCCTGTCTGACAGCTTTGAAGAGAGCAGTGGTTCTCCCAGCACGCAGCTGGAGATCTGAGAACGGGCAGACTGCCTCCTCAAGTGGGTCCCTGACCCCTGACCCCCGAGCAGCCTAACTGGGAGGCACCCCCCAGCAGGGGCACACTGACACCTCACACGGCAGGGTATTCCAACAGACCTGCAGCTGAGGGTCCTGTCTGTTAGAAGGAAAACTAACAACCAGAAAGGACATCTACACCGAAAACCCATCTGTACATCACCATCATCAAAGACCAAAAGTAGATAAAACCACAAAGATGGGGAAAAAACAGAACAGAAAAACTGGAAACTCTAAAACGCAGAGCGCCTCTCCTCCTCCAAAGGAACGCAGTTCCTCACCAGCAACAGAACAAAGCTGGATGGAGAATGATTTTGATGAGCTGAGAGAAGAAGGCTTCAGACGATCAAATTACTCTGAGCTACGGGAGGACATTCAAACCAAAGGCAAAGAAGTTGAAAACTTTGAAAAAAATTTAGAAGAATGTATAACTAGAATAACCAATACAGAGAAGTGCTTAAAGGAGCTGATGGAGCTGAAAACCAAGGCTCGAGAACTACGTGAAGAATGCAGAAGCCTCAGGAGCCGATGCGATCAACTGGAAGAAAGGGTATCAGCAATGGAAGATGAAATGAATGAAATGAAGCGAGAAGGGAAGTTTAGAGAAAAAAGAATAAAAAGAAATGAGCAAAGCCTCCAAGAAATATGGGACTATGTGAAAAGACCAAATCTACGTCTGATTGGTGTACCTGAAAG
B2: LINE-1 plasmid GFP: plasmid with LINE-1 ORF1, ORF2 and CMV promoter driven split GFP gene in reverse orientation in the 3′UTR (SEQ ID NO: 37) (nucleic acid)
DNA: CGGCCGCGGGGGGAGGAGCCAAGATGGCCGAATAGGAACAGCTCCGGTCTACAGCTCCCAGCGTGAGCGACGCAGAAGACGGTGATTTCTGCATTTCCATCTGAGGTACCGGGTTCATCTCACTAGGGAGTGCCAGACAGTGGGCGCAGGCCAGTGTGTGTGCGCACCGTGCGCGAGCCGAAGCAGGGCGAGGCATTGCCTCACCTGGGAAGCGCAAGGGGTCAGGGAGTTCCCTTTCCGAGTCAAAGAAAGGGGTGACGGACGCACCTGGAAAATCGGGTCACTCCCACCCGAATATTGCGCTTTTCAGACCGGCTTAAGAAACGGCGCACCACGAGACTATATCCCACACCTGGCTCGGAGGGTCCTACGCCCACGGAATCTCGCTGATTGCTAGCACAGCAGTCTGAGATCAAACTGCAAGGCGGCAACGAGGCTGGGGGAGGGGCGCCCGCCATTGCCCAGGCTTGCTTAGGTAAACAAAGCAGCAGGGAAGCTCGAACTGGGTGGAGCCCACCACAGCTCAAGGAGGCCTGCCTGCCTCTGTAGGCTCCACCTCTGGGGGCAGGGCACAGACAAACAAAAAGACAGCAGTAACCTCTGCAGACTTAAGTGTCCCTGTCTGACAGCTTTGAAGAGAGCAGTGGTTCTCCCAGCACGCAGCTGGAGATCTGAGAACGGGCAGACTGCCTCCTCAAGTGGGTCCCTGACCCCTGACCCCCGAGCAGCCTAACTGGGAGGCACCCCCCAGCAGGGGCACACTGACACCTCACACGGCAGGGTATTCCAACAGACCTGCAGCTGAGGGTCCTGTCTGTTAGAAGGAAAACTAACAACCAGAAAGGACATCTACACCGAAAACCCATCTGTACATCACCATCATCAAAGACCAAAAGTAGATAAAACCACAAAGATGGGGAAAAAACAGAACAGAAAAACTGGAAACTCTAAAACGCAGAGCGCCTCTCCTCCTCCAAAGGAACGCAGTTCCTCACCAGCAACAGAACAAAGCTGGATGGAGAATGATTTTGATGAGCTGAGAGAAGAAGGCTTCAGACGATCAAATTACTCTGAGCTACGGGAGGACATTCAAACCAAAGGCAAAGAAGTTGAAAACTTTGAAAAAAATTTAGAAGAATGTATAACTAGAATAACCAATACAGAGAAGTGCTTAAAGGAGCTGATGGAGCTGAAAACCAAGGCTCGAGAACTACGTGAAGAATGCAGAAGCCTCAGGAGCCGATGCGATCAACTGGAAGAAAGGGTATCAGCAATGGAAGATGAAATGAATGAAATGAAGCGAGAAGGGAAGTTTAGAGAAAAAAGAATAAAAAGAAATGAGCAAAGCCTCCAAGAAATATGGGACTATGTGAAAAGACCAAATCTACGTCTGATTGGTGTACCTGAAAGTGATGTGGAGAATGGAACCAA

Assays:
[1] = test system: THP-1 cells; assay: Integration and expression of HER2 binder-T2A-GFP cargo after LINE-1 plasmid electroporation; type: cell-based; details: 3.7 kb cargo, day 6 post transfection, FIG. 18B
Source text: Next, THP-1 cells (a myeloid, monocytic cell line) were electroporated with a plasmid having LINE-1 sequences and a 3.7 kb cargo encoding a chimeric HER-2 binding receptor, and a split GFP (LINE-1 plasmid Her2-Cd3z-T2A-GFPintron) (FIG. 18A). The cargo is a chimeric receptor that comprises a HER2 binding extracellular domain, a CD3z transmembrane domain, and split GFP reporter. […] Moreover, unlike CRISPR dependent technologies such as Prime editing, retrotransposition can result in integration of large genetic cargo, and, these can be delivered as a single nucleic acid construct.

[2] = test system: Jurkat cells; assay: GFP expression after delivery of LINE-1 plasmid or mRNA with CMV-GFP antisense reporter; type: cell-based; details: 4 days post electroporation, relative to mock, FIG. 17B
Protocol: To test retrotransposition in immune cells, LINE-1 plasmid and mRNA were tested with the CMV-GFP antisense reporter cargo by electroporating into Jurkat cells, which is a T cell lymphoma line (FIG. 17A-FIG. 17B). Mock set were electroporated with a plasmid with no GFP sequence. Fold increase is reported relative to mock transfected cells.

Molecule | genomic integration and expression of cargo [1] | GFP expression [2]
B1 | successfully integrated into the genome and showed prolonged expression | 
B2 |  | successful GFP expression

Reference: patent publication US12319925B2, “Methods and compositions for genomic integration” (Myeloid Therapeutics, Inc., priority 2021, dated 2025)
